Tests used:
Test in all cases: purified protein
Format in all cases: biochemical, Providencia stuartii
[1] = system: CCN[C@@H]1C[C@H](N)[C@@H](O[C@H]2OC(CN)=CC[C@H]2N)[C@H](O)[C@H]1O[C@H]1OC[C@](C)(O)[C@H](NC)[C@H]1O; conditions: acetyl-CoA aminoglycoside active site; acetylated at N-2′
[2] = system: CN[C@@H]1[C@@H](O)[C@@H](O[C@@H]2[C@@H](O)[C@H](O[C@H]3OC(CNCCO)=CC[C@H]3N)[C@@H](N)C[C@H]2NC(=O)[C@@H](O)CCN)OC[C@]1(C)O; conditions: acetyl-CoA (S)-HABA tail hydrogen bonds with Glu149 and Asp176
[3] = system: NC[C@H]1O[C@H](O[C@H]2[C@H](O)[C@@H](O[C@H]3O[C@H](CO)[C@@H](O)[C@H](N)[C@H]3O)[C@H](N)C[C@@H]2N)[C@H](N)C[C@@H]1O; conditions: acetyl-CoA aminoglycoside active site; acetylated at N-2′

## AAC(2′)-Ia (Providencia stuartii)
[1]
  Km: 19.9 ± 1.3 µM
  kcat: 6.05 ± 0.13 s⁻¹
  kcat/Km: 304000 ± 26000 M⁻¹ s⁻¹
[2]
  Km: 19.1 ± 2.5 µM
  kcat: 1.42 ± 0.05 s⁻¹
  kcat/Km: 74000 ± 12000 M⁻¹ s⁻¹
[3]
  Km: 14.5 ± 1.7 µM
  kcat: 5.04 ± 0.17 s⁻¹
  kcat/Km: 348000 ± 51000 M⁻¹ s⁻¹

Reference: publication PMC8172861, “Structural and phylogenetic analyses of resistance to next-generation aminoglycosides conferred by AAC(2′) enzymes” (Scientific Reports, 2021)
